According to patent US20090175889A1:

Experiments:
Assay in all cases: cell-based or functional assay
[1] = target: HIV-1 89.6 Env glycan mutant N7 (N197Q) (HIV-1 isolate 89.6) (UniProt Q73372)
[2] = target: HIV-1 89.6 Env triple glycan mutant N67V3 (N6, N7 and NV3: N187Q, N197Q, N301Q) (HIV-1 isolate 89.6) (UniProt Q73372)
[3] = target: human CXCR4 (on U87 human astroglioma cells stably transduced with human CXCR4) (human) (UniProt P61073)
[4] = target: HIV-1 89.6 Env glycan mutant NV3 (N301Q) (HIV-1 isolate 89.6) (UniProt Q73372)

Chain of UniProt P61073 (P61073 whole entry): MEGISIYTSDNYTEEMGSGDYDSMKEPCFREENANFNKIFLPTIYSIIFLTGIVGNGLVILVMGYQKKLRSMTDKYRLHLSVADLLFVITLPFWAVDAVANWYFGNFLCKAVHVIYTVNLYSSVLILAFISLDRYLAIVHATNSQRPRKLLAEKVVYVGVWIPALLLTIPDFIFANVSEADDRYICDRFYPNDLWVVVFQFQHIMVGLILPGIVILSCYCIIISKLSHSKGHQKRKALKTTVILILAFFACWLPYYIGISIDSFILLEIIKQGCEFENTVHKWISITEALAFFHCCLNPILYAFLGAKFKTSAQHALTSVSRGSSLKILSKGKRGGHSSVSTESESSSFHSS

Q: Which sensitivity to 17b without sCD4, compared to the WT or the N6 and NV3 mutants in the presence of sCD4 [1] does the source give for monoclonal antibody 17b here?
A: 30 fold

Q: What about the sensitivity to 17b without sCD4, compared to the WT or the N6 and NV3 mutants in the presence of sCD4 [2] of the same substance?
A: 30 fold

Q: monoclonal antibody IgG1b12 was tested. Which enhancement in neutralization sensitivity compared to wild-type 89.6 [1] did it give?
A: 60 fold

Q: monoclonal antibody 4E10 was tested. Which increase in neutralization sensitivity (vs WT) [1] did it give?
A: 3 fold

Q: What about the increase in neutralization sensitivity (vs WT) [2] of the same substance?
A: 3 fold

Q: For “recombinant sCD4-Ig (from UniProt P01730 26-204) (Fc fusion)”, which enhancement in neutralization sensitivity compared to wild-type 89.6 [1] is on record?
A: 50 fold

Q: For “HIV-1 89.6 Env glycan mutant NV3 (N301Q) (from UniProt Q73372 32-853)”, which increase in infectivity in CD4-negative cells as compared to WT Env [3] is on record?
A: 2 to 3 fold

Q: Which increase in neutralization sensitivity (vs WT) [1] does the source give for monoclonal antibody 2G12 here?
A: 3 fold

Q: And the decrease in neutralization sensitivity (vs WT) [4]?
A: 2 to 3 fold

Q: “HIV-1 89.6 Env glycan mutant N7 (N197Q) (from UniProt Q73372 32-853)” was tested. Which relative infectivity of pseudotyped virus in U87-CXCR4 cells in the absence of CD4 (vs WT virus) [3] did it give?
A: 10 fold
